Assay results: US7919104B2, “Functional epitopes of Streptococcus pneumoniae PsaA antigen and uses thereof” (priority 2005, dated 2011)
Several values for one entry are separate records, joined by “and”; a condition that tells them apart may be missing. Equal entries are not always repeated. No end group written: not given here.

What was measured:
[1] = tested on: Detroit 562 cells; test: Adherence of rPsaA- or peptide-coated fluospheres (beads) to Detroit 562 cells; assay type: cell-based, human; settings: 3,100±500 fluospheres per well; 2 hour incubation
Experimental: (§1) Carboxylate-modified fluorospheres (Molecular Probes™, […]) coated with either recombinant PsaA (rPsaA) or PsaA synthetic peptide (P4) were evaluated for their adherence to Detroit 562 NP cells. Four different batches of PsaA beads were generated by varying the concentration of the protein solution used to coat the beads (0.9 mg/ml, 0.53 mg/ml, 5.3 μg/ml and 0.53 μg/ml). P4 and Glycine control beads were generated by using a peptide solution (0.9 mg/ml). Protein concentrations were confirmed by the Bradford test (Sigma). PsaA and peptide beads were compared at similar inocula (1640±210 beads per well) in adherence and adherence competition assays (measured as mean fluorescent units (FU±SE)).
Recombinant PsaA protein or synthetic peptides were covalently bound to carboxylate-modified FluoSpheres (Molecular Probes, Eugene, Oreg.) (505/515 nm range, yellow, 1 μm in diameter). […] The 2% fluosphere stock was vortexed for 2 minutes at full speed. A 250-μl aliquot was sonicated for 5 minutes to break clumps. The sonicated fluospheres were washed 3 times by centrifugation at 10,000 rpm for 10 minutes in 250 μl MES buffer, pH 6.0 (Molecular Probes). The negative charge in the carboxylate-modified fluospheres was activated by adding 50 μl of EDAC solution (100 mg/ml, Molecular Probes) to the washed fluospheres resuspended in 200 μl MES. The fluospheres were incubated for 30 minutes RT with gentle rotation. A 250-μl volume of rPsaA (1 mg/ml) or peptide (2 mg/ml) resuspended in MES buffer was added to each fluosphere pellet. Suboptimal concentrations of rPsaA (900, 530, 5.3 and 0.53 μg/ml) were also used to generate partially coated fluospheres. Peptides were dissolved as 1 mg in 50 μl of 10% acetic acid followed by addition of 450 μl of MES buffer, pH 6.0. The 500-μl fluosphere suspension was incubated in the dark over night at room temperature with horizontal rotation (150 rpm). The remaining reactive sites were blocked by addition of a 50-μl volume of 1 M solution of glycine, followed by a-30-minute incubation at room temperature with horizontal rotation. The fluosphere suspension was then washed with 500 μl PBS, 50 mM, pH 7.2-7.4 three times by centrifugation at 10,000 rpm for 10 minutes. The first supernatant of the first wash was saved for protein determinations using the microtiter microdilution method of Bradford (Bio-Rad Laboratories, Calif.). The labeled fluosphere pellet was resuspended in 500 μl of PBS, 50 mM, pH 7.2-7.4. Labeled fluospheres were stored in the dark in 100-μl aliquots at 4° C. for up to 4 months. The peptides were stored in powder form at 4° C. under Dryerite desiccant. The resuspended peptides were stored at 4° C. for 6 weeks and for long term storage at −70° C. Fluospheres were counted by limiting dilution using a fluorometer (FLX-600, BioTek) with 485/520 nm excitation/emission wavelength and comparison to a calibration curve previously generated against hemacytometer counts.
Confluent monolayers of Detroit 562 cells grown in 96-well tissue culture plates for 6 days were washed once with 130 μl/well of PBS buffer+0.5% BSA (Sigma cat #A2153, Fraction V purified by alcohol precipitation). The entire outer perimeter of the microtiter plate was not used for adherence assays due to edge effect and lack of confluent growth in these wells. An 80-μl volume per well of PBS buffer+1% BSA and 20 μl per well of diluted fluosphere suspension (to yield ˜3100±500 fluospheres in a 20-μl volume) were added to the washed monolayers. The diluted fluosphere suspension was sonicated for 3 minutes prior to addition to the center of the wells. […] The sides of the plates were then tapped gently to mix. […] Following incubation, plates were washed 5 times with 130 μL/well of PBS+0.5% BSA. The liquid was removed after each wash with a multi-channel aspirator (Costar) and moderate vacuum. The plate was allowed to dry before reading in the fluorometer (485/520 nm). […]

[2] = tested on: Detroit 562 cells; test: Competitive inhibition of adherence of rPsaA-coated fluospheres to Detroit 562 cells; assay type: cell-based, human; settings: for inhibition of rPsaA-fluosphere adherence, heterologous competition: peptide 10 μg/well
Experimental: as §1
(§2) Homologous competitive inhibitions with 0.5 to 10 μg per well of rPsaA protein or 5 to 20 μg per well of each peptide were performed to determine the specificity of the adherence for rPsaA-coated fluospheres or for each of the three peptide-coated fluospheres. Heterologous competitive inhibitions with each peptide (10 μg per well) were performed to determine which peptide blocked the adherence of whole PsaA-coated fluospheres to the Detroit 562 cells. Absorption of PsaA-specific antibodies was performed by incubation (2 hours at ambient room temperature with rotation, 100 rpm) of 500 μl (1:8 dilution) of the serum 7051 with nitrocellulose strips (2.5×0.5 cm), previously impregnated with rPsaA protein (1.8 mg/ml) and allowed to dry at 37° C. for 1 hour. Strips were replaced every 2 hours for a total of 3 changes. All antibody absorptions were performed in PBS (10 mM, pH 7.2) supplemented with 1% (weight/volume) BSA as a non-specific blocker. Immunoglobulin G (IgG) concentrations (μg/ml) were measured as previously described (Tharpe, Romero-Steiner) after each absorption step to monitor the decline of anti-PsaA antibodies.

[3] = tested on: Detroit 562 cells; test: Homologous competitive inhibition of adherence of rPsaA- or peptide-coated fluospheres to Detroit 562 cells; assay type: cell-based, human
Experimental: as §1, §2

[4] = tested on: pneumococci; settings: antibodies to the peptides; cited from earlier work
[5] = tested on: Pneumococci (Pnc); test: Rabbit immunization with MAP of P4: serum inhibition of adherence of Pneumococci to Detroit 562 cells (anti Pneumococcal activity); assay type: in vivo, Streptococcus pneumoniae
From the text: The MAPs consist of two arms, each consisting of SEQ ID NO:1 linked via lys or nle-lys to a resin.
Assessment of Serum Samples: • 1) Inhibition of adherence of P4 coated fluorescent beads to Detroit 562 cells (in vitro; tissue culture) to detect the presence of anti P4 antibodies in serum. • 2) Inhibition of adherence of PsaA coated fluorescent beads to Detroit 562 cells (in vitro; tissue culture) to detect the presence of anti PsaA antibodies in the serum. • 3) Inhibition of adherence of Pneumococci (Pnc) to Detroit 562 cells (in vitro; tissue culture) to detect the presence of anti Pnc antibodies in serum. Immunization with P4E—Analyses of Rabbit Sera for Anti P4 and Anti Pneumococcal (Pnc) Antibody: Animal 465

[6] = biological target: T1, P4 coated fluorescent beads (Streptococcus pneumoniae serotype 4, UniProt P0A4G2, D258K/D259R); test: Rabbit immunization with MAP of P4: serum inhibition of adherence of P4 coated fluorescent beads to Detroit 562 cells (anti P4 activity); assay type: in vivo
T1 sequence (P0A4G2 251-278 D258K/D259R): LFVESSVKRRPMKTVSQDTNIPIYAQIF

[7] = homologous competitor 5.0 μg/well
[8] = homologous competitor 10 μg/well
[9] = homologous competitor 20 μg/well
[10] = rabbit serum 1:1000, Bleed # 1 (Day 28)
[11] = rabbit serum 1:1000, Bleed # 2 (Day 42)
[12] = rabbit serum 1:8000, Bleed # 1 (Day 28)
[13] = rabbit serum 1:8000, Bleed # 2 (Day 42)
[14] = rabbit serum 1:16000, Bleed # 2 (Day 42)
[15] = rabbit serum 1:32000, Bleed # 1 (Day 28)
[16] = rabbit serum 1:10, Bleed # 1 (Day 28)
[17] = rabbit serum 1:10, Bleed # 2 (Day 42)
[18] = rabbit serum 1:100, Bleed # 1 (Day 28)
[19] = rabbit serum 1:16000, Bleed # 1 (Day 28)
[20] = rabbit serum 1:32000, Bleed # 2 (Day 42)
[21] = rabbit serum 1:64000, Bleed # 1 (Day 28)
[22] = rabbit serum 1:64000, Bleed # 2 (Day 42)
[23] = rabbit serum 1:128000, Bleed # 1 (Day 28)
[24] = rabbit serum 1:128000, Bleed # 2 (Day 42)
[25] = rabbit serum 1:256000, Bleed # 1 (Day 28)
[26] = rabbit serum 1:256000, Bleed # 2 (Day 42)
[27] = rabbit serum 1:512000, Bleed # 1 (Day 28)
[28] = rabbit serum 1:512000, Bleed # 2 (Day 42)

Substance | mean adherence of coated fluospheres (mean FU±SE) [1] | inhibition of rPsaA-fluosphere adherence, heterologous competition [2] | percent reduction in adherence of homologous coated fluospheres [3, 7] | percent reduction in adherence of homologous coated fluospheres [3, 8] | percent reduction in adherence of homologous coated fluospheres [3, 9] | colonization in mice immunized with the peptides [4] | Anti Pneumococcal activity, % inhibition of adherence (% IA) [5, 10] | Anti Pneumococcal activity, % inhibition of adherence (% IA) [5, 12] | Anti Pneumococcal activity, % inhibition of adherence (% IA) [5, 13] | Anti P4 activity, % inhibition of adherence (% IA) [6, 16] | Anti P4 activity, % inhibition of adherence (% IA) [6, 17] | Anti P4 activity, % inhibition of adherence (% IA) [6, 18] | Anti P4 activity, % inhibition of adherence (% IA) [6, 10] | Anti P4 activity, % inhibition of adherence (% IA) [6, 11] | Anti P4 activity, % inhibition of adherence (% IA) [6, 12] | Anti P4 activity, % inhibition of adherence (% IA) [6, 13] | Anti P4 activity, % inhibition of adherence (% IA) [6, 19] | Anti P4 activity, % inhibition of adherence (% IA) [6, 14] | Anti P4 activity, % inhibition of adherence (% IA) [6, 20] | Anti P4 activity, % inhibition of adherence (% IA) [6, 21] | also measured
LVRRFVHRRPHVE-SQ (LVRRFVHRRPHVESQ) [P3, synthetic peptide identified by phage display, reference compound] | 9,780±228 FU | 75.2% | −7.3% | 5.2% | 44.2% | reduce colonization |  |  |  |  |  |  |  |  |  |  |  |  |  |  | enhancement of the binding of rPsaA fluospheres ([2]; unsaturated fluospheres (530 μg/ml of rPsaA), data not shown): < 2.5 fold
P4E2: Multi Antigenic Peptide (MAP) of P4: two arms, each SEQ ID NO:1, linked via lys or nle-lys to a resin (chain 1 LFVESSVKRRPMKTVSQDTNIPIYAQIF; chain 2 LFVESSVKRRPMKTVSQDTNIPIYAQIF; not fully specified; also: MAP: two identical arms on a Lys or Nle-Lys core) |  |  |  |  |  |  | 22% and 23% | 19% and 21% | 22% and 16% | 50% and 56% | 74% and 75% | 0% | 0% | 4% and 1% | 0% | 1% and 2% | 0% | 0% | 0% | 0% | Anti Pneumococcal activity, % inhibition of adherence (% IA) [5, 11]: 33% and 20%; Anti Pneumococcal activity, % inhibition of adherence (% IA) [5, 14]: 18% and 12%; Anti Pneumococcal activity, % inhibition of adherence (% IA) [5, 15]: 0%; Anti P4 activity, % inhibition of adherence (% IA) ([6]; rabbit serum 1:100, Bleed # 2 (Day 42)): 0% and 3%; Anti P4 activity, % inhibition of adherence (% IA) [6, 15]: 0%; Anti P4 activity, % inhibition of adherence (% IA) [6, 22]: 2% and 4%; Anti P4 activity, % inhibition of adherence (% IA) [6, 23]: 0%; Anti P4 activity, % inhibition of adherence (% IA) [6, 24]: 4% and 0%; Anti P4 activity, % inhibition of adherence (% IA) [6, 25]: 0%; Anti P4 activity, % inhibition of adherence (% IA) [6, 26]: 4% and 5%; Anti P4 activity, % inhibition of adherence (% IA) [6, 27]: 0%; Anti P4 activity, % inhibition of adherence (% IA) [6, 28]: 0%
P4E: Multi Antigenic Peptide (MAP) of P4: two arms, each SEQ ID NO:1, linked via lys or nle-lys to a resin (chain 1 LFVESSVKRRPMKTVSQDTNIPIYAQIF; chain 2 LFVESSVKRRPMKTVSQDTNIPIYAQIF; also: MAP: two P4 arms on a Lys or Nle-Lys core) |  |  |  |  |  |  | 24% and 38% | 23% and 34% | 13% and 21% | 39% and 46% | 43% and 48% | 32% and 29% | 33% and 41% | 9% and 12% | 6% and 9% | 5% and 4% | 12% and 15% | 7% and 1% | 9% and 5% | 22% and 21% | Anti Pneumococcal activity, % inhibition of adherence (% IA) [5, 19]: 25% and 27%; Anti Pneumococcal activity, % inhibition of adherence (% IA) [5, 20]: 14% and 16%; Anti P4 activity, % inhibition of adherence (% IA) [6, 22]: 6% and 3%; Anti P4 activity, % inhibition of adherence (% IA) [6, 23]: 10% and 15%; Anti P4 activity, % inhibition of adherence (% IA) [6, 24]: 5% and 9%; Anti P4 activity, % inhibition of adherence (% IA) [6, 25]: 5% and 7%; Anti P4 activity, % inhibition of adherence (% IA) [6, 26]: 0% and 3%; Anti P4 activity, % inhibition of adherence (% IA) [6, 27]: 5% and 7%; Anti P4 activity, % inhibition of adherence (% IA) [6, 28]: 6% and 3%
RSYQHDLRAYGFWRL [P2, synthetic peptide identified by phage display, reference compound] | 17,195±1,044 FU | 62.2% | 43.1% | 20.5% | 0.8% | reduce colonization |  |  |  |  |  |  |  |  |  |  |  |  |  |  | 
TVSRVPWTAWAFHGY [P1, synthetic peptide identified by phage display, reference compound] | 52,684±4,354 FU | 88.1% | 50.2% | 60.9% | 34.1% | reduce colonization |  |  |  |  |  |  |  |  |  |  |  |  |  |  | 
